# Measured values taken from the RNAGym collection of RNA variant scans (doi:10.1073/pnas.2313332121).
# B1: TPR t1 (parent)
# chain: GACCAAUCUGCCCUCAGAGCUCGAGAACAUCUUCGGAUGCAGAGGAGGCAGGCUUCGGUGGCGCGAUAGCGCCAACGUCCUCAACCUCCAAUGCAUCCCACCACAUGAUGAUGCCUGAAGAGCCUUGGUUUUUUG
# Variants of: B1
# Test: polymerase ribozyme fitness, log enrichment relative to wild type (log ratio); higher = more active; in vitro selection for triplet polymerase activity
# Procedure, shortened: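 For each subunit of a heterodimeric triplet polymerase ribozyme, a mutant library was built by PCR and transcribed, then taken through a single in vitro selection round in triplicate. Selection involved annealing to a biotinylated primer, the partner subunit and triplets, incubation frozen at −7 °C, gel excision of extended constructs, capture on streptavidin beads and RT-PCR. Genotypes were retained after Illumina sequencing of inputs and outputs only with ≥10 input reads and ≥1 read in each output. Fitness is defined as the logarithm of a genotype's enrichment relative to wild-type enrichment, using inverse-variance-weighted averages across replicates, with the logarithm taken to base 2.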
row,Variant,polymerase ribozyme fitness (log ratio)
1,GACCAUUCUGCCCUCAGAGCUCGAGAACAUCUUCGGAUGCAGAGGAGCCAGGCAUCGGUGGCGCGAUAGCGCCAACGUCCUCAACCUCAAAUGCAUUCCACCACAUGAUGAUGCCUGAAGAGCCUUGGUUUUUUG [A6U G48C U54A C89A C97U],-3.1
2,GCCCAAUCUGCCCUCAGAGCUCGAGAACAUCUUCGGAUGCAGAGGAGGCAGGCUUCGGUGGCGCGAUAGCGCCAACGUCCUCAACCUCCAAUGCAUCCCACCACAUGAUGAUGCCUGAAGAGCCUUUGUUUUUUG [A2C G127U],-1.27
3,GACCAAUCUGCCCUCAGAGCUCGAGAACAUCUUCGGUUGCAGAGGAGGCAGGCUUCGGUGGCGCGAUAGCGCCAACGUCCUCAACCUCCAAUGCAUCCCACCACAUGAUUAUGCCUGAAGAGCCUUGGUUUUUUG [A37U G110U],-1.34
4,GACCAAUCUGCCGUCAGAGCUCGAGAACAUCUUCGGAUGCAGAGGAGGCAGGCUUCGGUGGCUCGAUAGCGUCAACGUCCUCAACCUCCAAUGCAUCCCACCACAUGAUGAUGCCUGAAGAGCCUUGGUUUUUUG [C13G G63U C72U],-2.72
5,GACCAAUCUGCCCUCAGAGCUCGAGAACAUCUUCGGGUGCAGAGGAGGCAGGCUUCGGUGGCGCGAUAGCGCCAACGUCCUCAACAUCCAAUGCAUCCCACCACAUGAUGAUGCCUGAAGAGCCUUGGUUUUUUG [A37G C86A],-1.81
6,GACCAAUCUGCCGUCAGAGCUCGAGAACAUCUUCGGAUGCAGAGGAGGCAGGCUUCGUUCGCGCGAUAGCGCCAACGUCCUCAACCUCCAAUGCAUCCCACCACAUGAUGAUGCCUUAAGAGACUUGGUUUUUUG [C13G G58U G60C G117U C123A],-2.6
7,GACCAAUCUGCACUCAGAGCUCGAGAACAUCUUCGGAUGCAGAGGAGGCAGGCUUCGGUGGCGCGAUAGCGCCAACGUCCUCAACCUCAAAUGCAUCCCACCACAUGAUGAUGCCUGAAGAGCCUUGGUUUUUUG [C12A C89A],-1.87
8,GACCAAUCUGCCCUCAGAGCUCGAGAACAUCUUCGGAUGCAGAGUAGGCAGGCUUCGGUGGCGCGAUAGCGCCAACGUCCUCAACCUCCAAUGCAUCCCACCACAUGAUGAUGCCUGAAGAGCCUUGGGUUAUUG [G45U U129G U132A],-3.85
9,GACCAAUCUGCCCUCAGAGCUCGAGAACAUCUUCGGAUGCAGAGGGGGCAGGAUUCGGUGGCGCGAUAGCGCCAACGUCCUCAACCUCCAAUGCAUCCCACCACAUGAUGAUGCCUGAAGAGCCUUCGUUUUUUG [A46G C53A G127C],-1.2
10,GACCAUUCUGCCCUCAGAGCUCGAGAACAUCUUCGGAUGCAGAUGAGGCAGGCUUCGGUGGCGCGAUAGCGCCAACGUCCUCAACCACCACUGCAUUCCACCACAUGAUGAUGCCUGAAGAGCCUUGGUUUUUUG [A6U G44U U87A A91C C97U],-1.94
11,GACCAAUCUGCCCUAAGAGCUCGAGAACAUCUUCGGAUGCAGAGGACGCAGGCUUCGGUGGCGCGAUAGCGCCAACGUCCUCAACCUCCAAUGCAUCCCACCACAUGAUGAUGCCUGAAGAGCCUUGGUUUUCUG [C15A G47C U133C],-3.12
12,GACCAAUCUGCCCUCAGAGCUCGAGAACAUCUUCGGAUGCAGAGGAGGCAGGCUUCGGUGGUGCGAUAGCGCCAACGUCCUCAACCUCCAAUGCAUUCCACCACAUGAUGAUGCGUGAAGAGCCUUGGUUUUUUG [C62U C97U C115G],-3.22
13,GACCAAUCUGCCCUCAGAGCUCGAGAACAUCUUCGGGUGCAGAGGAGGCAGGCUUCGGUGGCGCGAUAGCGCCAACGUCCUCAACCUACAUUGCAUCCCACCACAUGAUGAUGCCUGAAGAGCCUUGGUUUUUUG [A37G C88A A91U],-4.17
14,GACCAAUCUGCCCUCAGAGCUCGAGAACAUCUUCGGAUGCAGAGGAGGCAGGCUUCGGUGGCGCGAUAGCGCCAACGUCCUCAACCUCCAGUGCAUCCCACCACAUGAUGAUCCCUGAAAAGCCUUGGUUUUUUG [A91G G113C G120A],-3.31
15,GACCAAUCUCCCCUCAGAGCUCGAGAACAUCUUUGGAUGCAGAGGAGGCAGGCUUCGGUGGCGCGAUAGCGCCAACGUCCUCAACCUCCAAUGCAUCCCACCACAUGAUGAUGCCUGAAGAGCCUUGGUUUUUUG [G10C C34U],-5.43
16,GACCAAUCUGCCCUCAGAGCUCGAGAACAUCUUCGGAUGCAGAGGAGGCAGGCUUCGGUGGCGCGAUAGCGCCAACGUCCUCAACCUCCAAUGCAUCCCACCACAUGAUGAUGCCUGAAGAACCUUGGUGUUUUG [G122A U130G],-1.01
17,GACCAAUCUGCCCUCAGAGCUCGAGAACGUCUUCGGAUGCAGAGGAGGCAGGCUUCGGUGGCGCGAUAGCGCCAACGUUCUCAACCUCCAAUGCAUCCCACCACAUGAUGAUGCCUGAAGAGCCUUGGUUUUUUG [A29G C79U],-1.06
18,GACCAAUCUGCCCUCAGAGUUCGAGAACAUCUGCGGAUGCAGAGGAGGCAGGCUUCGGUGGCGCGAUAGCGCCAACGUCCUCAACCUCCAAUGCAUCCCACCACAUGAUGAUGCCUGAAGAGCCUUGGUUUUUUG [C20U U33G],-6.55
19,GAGCAAUCUGCCCUCAGAGCUCGAGAACAUCUUCGGAUGCAGAGGAGGCAGGCUUCGGUGGCGCGAUAGCGCAAAUGUCCUCAACCUCCGAUGCAUCCCACCACAUGAUGAUGCCUGAAUAGCCUUUGUUUUUUG [C3G C73A C76U A90G G120U G127U],-3.52
20,GACCAUUCUGUCCUCAGAGCUCGAGAACAUCUUCGGAUGCAGAGGAGGCAGGCUUCGGUGGCGCGAUAGCCCCAACGUCCUCAACCUCCAAUGCAUCCCACCACAUGAUGAUGCCUGAAGAGCCUUGGUUUUUUG [A6U C11U G71C],-0.83
21,GACCAUUCUGCCCUCAGAGCUCGAGAACAUCUUCGGAUGCAGAGGAGGCAGGCUUCGGUGGCCCGAUAGCGCCAACGUCCUCAACCUCCAAUGCAUCCCACCACAUGAUGAUGCCUGAAGAGCCUUGGUUUUUUG [A6U G63C],-0.899

row,Variant,polymerase ribozyme fitness (log ratio)
1,GACCAAUCUGCCCUCAGAGCUCGAGAACAUCUUCGGACGCAGAGGAGGCAGGCUUCGGGGGCGCGAUAGCGCCAACGUCCUCAACCUCCAAUGCCUCCCACCACAUGAUGAUGCCUGAAGAGCCUUGGUUUUUUG [U38C U59G A95C],-0.718
2,GACCAAUCUGCCCUCAGAGCUCGAGAACAACUUCGGAUGCAGAGGAGGCAGGCUUCGGUGGCGCGAUAGCGCUAACGUCCUCAACCUCCAAUGCAUCCCACCACAUGAUGAUGCCUGAAGAGCCUUGGUUUUUUG [U30A C73U],-5.38
3,GACCAAUCUGCCCUCUGAGCUCGAGAACAUCUUCGGAUGCAGAGGAGGCAGGCUUCGGUGGCGCGAUAGCGCCAACGUCCUCAACCUCCAAUGCAUCCCACCACAUGAUGAUGCCUGAAGAGACAUGGUUUUUUG [A16U C123A U125A],-0.935
4,GACCAAUCUGCCCUCAGAGCUCGAGAACAUCUUCGGAUGCAGAGGAGGCAGGCUUCGGUGGCGCGAUAGCGCCAACGUCCUCAACCUCCAUUGCAUCCCACCACAUGAUGAUGCUUGAAGAGCCUUGGUAUUUUG [A91U C115U U130A],-2.33
5,GACCAAUCUGCCCUCAGAGCUCGAGAACAUCUUCGGAUGCAGAGGAGGCAGGCUUCGGUGGCGCGAUAGAGCCAACGUCCUCAACCUCCAAAGCUUCCCACCACAUGAUGCUCCCUGAAGAGCCUUGGUUUUUUG [C70A U92A A95U A111C G113C],-6.14
6,GACCAAUCUGCCCUCUGAGCUCGAGGACAUCUUCGGAUGCAGAGGAGGCAGGCUUCGGUGGCGCGAUAGCGCCAACGUCCUCAACCUUCAAUGCAUCCCACCACAUGAUGAUGCCUGAAGAGCGUUGGUUUUUUG [A16U A26G C88U C124G],-1.11
7,GAUCAAUCUGCCCUCAGAGCUCGAGAACAUCUUCGGAUGCAGAGGAGGCAGGCUUCGGUGGCGCGAUAGCGCUAACGUCCUCAACCCUCAAUGCAUCCCACCACAUGAUGGUGCCUGAAGAGACUUGGUUUUUUG [C3U C73U U87C C88U A111G C123A],-3.08
8,GACCAAUCUGCCCUCAGAGCUCGAGAACAUCUUCGGAUGCAGAGGAGGCAGGCUUCGGUGUCGCGAUAGCGCCAACGUCCUCAACCUCCAAUGCAUCCCACCACAUGACGAUGCCUGAAGAGCCUUGGUUUUUUG [G61U U109C],-2.41
9,GACCAAUCUGCGCUCAGAGCUCGAGAACAUCUUCGGAUGCAGAGGAGGCAGGCUUCGGUGGCGUGAUAGCGCCAACGUCCUCAACCUCCAAUGCAUCCCACCACAUGAUGAUGCCUGAAGAGCCUUGGUUUUAUG [C12G C64U U133A],-0.644
10,GACCAAUCUGCCCUCAGAGCUCGAGAACAUCUUAGGAUGCAGAGGAGGCAGGCUUCGGUGGCGCGAUAGCGCCAACGUCCUCAACCUCCAAUGCAUCCCACCACAUGAUGAUGCCUGAAGAGCCUUGGCUUUUUG [C34A U129C],-3.48
11,GACCAAUCUGCCCUCAGAGCUCGAGAACAUCUUCGGAUGCAGAGGAGGCGGGCUGCGGUGGCGCGAUAGCGCCAACGUCCUCAACCUCCAAUGCAUCCCACCACAUGAUCAUGCCUGAAGAGCCUUGGUUUUUUG [A50G U55G G110C],-4.52
12,GACCAAUCUGCCCUCAGAGCUCGAGAACAUCUUCGGAUGCAGAGGAGGCAGGCUUCGGUGUCGCGAUAGCGCCAACGUCCUCAACCUCCAAUGCAUGCCACCACAUGAUGAUGCCUGAAGAGCCUUGGUUUUUUG [G61U C97G],-4.15
13,GACCAAUCUGCCCUCAGAGCACGAGAACAUCUUCGGAUGCAGAGGAGGUAGGCUUCGGUGGCGCGAUAGCGCCAACGUCCUCAACCUCCAAUGCAUCCCACCACAUGAUGAUGCCUGAAGAGCCUUGGUUUUUUG [U21A C49U],-1.1
14,GACCAAUCUGCCCUCAUGGCUCGAGAACAUCUUCGGAUGCAGAGGAGGCAGGCUUGGGUGGCGCGAUAGCGCCAACGUCCUCAGCCUCCAAUGCAUCCCACCACAUGAUGAUGCCUGAAGAGCCUUGGUUGUUUG [G17U A18G C56G A84G U131G],-5.98
15,GACCAAUCUGCCCUAAGAGCUCGAGAACAUCUUCGGAUGCAGAGGAGGCAGGCUGCGGUGGCGCGAUAGCACCAACGUCCUCAACCUACAAUGCAUCCCACCACAUGAUGAUGCCUGAAGAGCCUUGGUUUUUUG [C15A U55G G71A C88A],-2.35
16,GACCAAUCUGCCCUCAGAGCUCGAGAACAUCUUCGGAUGCAGAGGAGGCAGGCUUCGGCGGCGCGAUAGCGCCAACGUCCUCAACCUUCAAUGCAUCCCACCACAUGAUGAUGCCUGAAGAGCCUUGGUUUUUUG [U59C C88U],-0.959
17,GACCAAUCUGCCCUCAGAGCUCGAGAACAUCUUCGGAUGCAGAGGCGGCAGGCUUCGGUGGCGCGAUAGCGCCUACGUCCUCAACCUCCAAUGCAUCCCACCACAUGAUGAUGCCUGAAGAGCCUUGGUUUUUUG [A46C A74U],-0.673
18,GACCAAUCUGCUCUCAGAGCUCGAGAACAUCUUCGGAUGGAGAGGAGGCGGGCUUCGGUGGCGGGAUAGCGCCAACGUCCUCAACCUCCAAUGCAUCCCACCUCAUGAUGACGCAUGGAGAGCCUUUGUUUUUUG [C12U C40G A50G C64G A103U U112C C115A A118G G127U],-5.71
19,GACCAAUCUGCCCUCAGAGCUCGAGAACGUCUUCGGAUGCAGAGGAGGCAAGCUUCGGUGGCGCGAUAGCGCCAACGUCCUCAACCUCCAAUGCAUCCCACCACAUGAUGAUGCCUGAAGAGCCUUGGUUUUUUG [A29G G51A],-3.06
20,GACCAAUCUGCCCUCAGAGCUCGAGAACAUCUUCGGAUGCAGAGGAGGCAGGCUUCGGUGGAGCGAUAGCGCCAACGUCCUCAACCUCCAAUGAAUCCCACCACAUGAUGAUGCCUGAAGAGCCUUGGUUUUUUG [C62A C94A],-2.2
21,GACCAAUCUGCCCUCAGAGCUCGAGAACAUCUUCGGAUGCGGAGGAGGCAGGCUUCGGUGGCGCGAUAGCGCCAACGUCCUCAACCGCCAAUGCAUCCCACCACAUGAAGAUGCUUGAAGAGCCUUGGUUUUUUG [A41G U87G U109A C115U],-6.39
